The assay addresses H2-K (b) OVA 257-264 SIINFEKL peptide-MHC (mouse) (UniProt P01901). Description: cell-based or functional assay.
Sequence of UniProt P01901 (P01901 22-305 limits assumed): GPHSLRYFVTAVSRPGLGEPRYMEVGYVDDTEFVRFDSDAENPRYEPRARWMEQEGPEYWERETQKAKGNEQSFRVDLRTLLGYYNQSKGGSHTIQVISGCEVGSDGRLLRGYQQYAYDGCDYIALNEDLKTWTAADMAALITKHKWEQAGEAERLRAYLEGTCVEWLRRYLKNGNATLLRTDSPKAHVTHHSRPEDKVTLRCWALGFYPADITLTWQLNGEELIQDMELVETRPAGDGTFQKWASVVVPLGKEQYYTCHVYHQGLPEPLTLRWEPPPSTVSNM

Consider OT-1 TCR on OT-1 T-cells, for which the TCR tension signal, OT1 T-cells cultured in ACM relative to UCM (decrease) was determined as 37 % decrease and the TCR tension signal, OT1 T-cells cultured in SCM relative to UCM (increase) is 1240 % increase.
